The values that follow come from article PMC2747101.

The target of this assay is hCD40ADD (human CD40 with its TRAF binding site PVQETLH changed to PVQATDD) (human) (UniProt P25942). Put plainly: co-IP.

B1: TNF receptor-associated factor 2 (natural protein)
chain: MAAASVTSPGSLELLQPGFSKTLLGTRLEAKYLCSACKNILRRPFQAQCGHRYCSFCLTSILSSGPQNCAACVYEGLYEEGISILESSSAFPDNAARREVESLPAVCPNDGCTWKGTLKEYESCHEGLCPFLLTECPACKGLVRLSEKEHHTEQECPKRSLSCQHCRAPCSHVDLEVHYEVCPKFPLTCDGCGKKKIPRETFQDHVRACSKCRVLCRFHTVGCSEMVETENLQDHELQRLREHLALLLSSFLEAQASPGTLNQVGPELLQRCQILEQKIATFENIVCVLNREVERVAVTAEACSRQHRLDQDKIEALSNKVQQLERSIGLKDLAMADLEQKVSELEVSTYDGVFIWKISDFTRKRQEAVAGRTPAIFSPAFYTSRYGYKMCLRVYLNGDGTGRGTHLSLFFVVMKGPNDALLQWPFNQKVTLMLLDHNNREHVIDAFRPDVTSSSFQRPVSDMNIASGCPLFCPVSKMEAKNSYVRDDAIFIKAIVDLTGL
Molecule B1 returned a fold reduction of co-immunoprecipitated TRAF2 against hCD40 of 2 fold.
